B1: FcRn-15 (designed binder)
chain: MIPRGLSEAKPATPEIQEIVDKVKPQLEEKTNETYGKLEAVQYKTQVLAHNHRHYSKGSTNYYIKVRAGDNKYMHLKVFNGPAFNDGAVFIADRVLTGYQVDKNKDDELTGFHHHHHH
notes: also called LGC01-15
B2: FcRn-120 (designed binder)
chain: MIPRGLSEAKPATPEIQEIVDKVKPQLEEKTNETYGKLEAVQYKTQVLAKHKYHHTGHSTNYYIKVRAGDNKYMHLKVFNGPGQIHKVRSTADRVLTGYQVDKNKDDELTGFHHHHHH
notes: AFFIMER (stefin A variant)
B3: FcRn-48 (designed binder)
chain: MIPRGLSEAKPATPEIQEIVDKVKPQLEEKTNETYGKLEAVQYKTQVLAKPKYHHHDISTNYYIKVRAGDNKYMHLKVFNGPGHHAKPHRWADRVLTGYQVDKNKDDELTGFHHHHHH
notes: AFFIMER (stefin A variant)
B4: FcRn-125 (designed binder)
chain: MIPRGLSEAKPATPEIQEIVDKVKPQLEEKTNETYGKLEAVQYKTQVLADHRPRHPKHSTNYYIKVRAGDNKYMHLKVFNGPAHKHHLGFKADRVLTGYQVDKNKDDELTGFHHHHHH
notes: AFFIMER (stefin A variant)
B5: FcRn-12 (designed binder)
chain: MIPRGLSEAKPATPEIQEIVDKVKPQLEEKTNETYGKLEAVQYKTQVLAKVKTHDHQRSTNYYIKVRAGDNKYMHLKVFNGPIHQHHSQDWADRVLTGYQVDKNKDDELTGFHHHHHH
notes: AFFIMER (stefin A variant)
B6: FcRn-16 (designed binder)
chain: MIPRGLSEAKPATPEIQEIVDKVKPQLEEKTNETYGKLEAVQYKTQVLAKHHHHKHQHSTNYYIKVRAGDNKYMHLKVFNGPVFLHNESHQADRVLTGYQVDKNKDDELTGFHHHHHH
notes: AFFIMER (stefin A variant)
B7: FcRn-18 (designed binder)
chain: MIPRGLSEAKPATPEIQEIVDKVKPQLEEKTNETYGKLEAVQYKTQVLAETPHERHKTSTNYYIKVRAGDNKYMHLKVFNGPKRWLKHHAHADRVLTGYQVDKNKDDELTGFHHHHHH
notes: AFFIMER (stefin A variant)
B8: FcRn-88 (designed binder)
chain: MIPRGLSEAKPATPEIQEIVDKVKPQLEEKTNETYGKLEAVQYKTQVLAHHTKHHSRWSTNYYIKVRAGDNKYMHLKVFNGPVNHISHAPIADRVLTGYQVDKNKDDELTGFHHHHHH
notes: AFFIMER (stefin A variant)
B9: FcRn-109 (designed binder)
chain: MIPRGLSEAKPATPEIQEIVDKVKPQLEEKTNETYGKLEAVQYKTQVLARPHNRDSHRSTNYYIKVRAGDNKYMHLKVFNGPDRKHRKHWHADRVLTGYQVDKNKDDELTGFHHHHHH
notes: AFFIMER (stefin A variant)
B10: FcRn-176 (designed binder)
chain: MIPRGLSEAKPATPEIQEIVDKVKPQLEEKTNETYGKLEAVQYKTQVLAGRHHESHKSSTNYYIKVRAGDNKYMHLKVFNGPFQHKLHKHHADRVLTGYQVDKNKDDELTGFHHHHHH
notes: AFFIMER (stefin A variant)

Experiments:
Hu FcRn (BPS Bioscience) [1] = target: T1, Hu FcRn (BPS Bioscience) (human, UniProt P55899 24-297; P61769 21-119); experiment: ELISA, huFcRn coated, pH 6
T1 construct: Bought recombinant protein coated on ELISA plates; also called human FcRn; human neonatal Fc receptor
T1 sequence (P55899 24-297 limits assumed, chain 1 of 2): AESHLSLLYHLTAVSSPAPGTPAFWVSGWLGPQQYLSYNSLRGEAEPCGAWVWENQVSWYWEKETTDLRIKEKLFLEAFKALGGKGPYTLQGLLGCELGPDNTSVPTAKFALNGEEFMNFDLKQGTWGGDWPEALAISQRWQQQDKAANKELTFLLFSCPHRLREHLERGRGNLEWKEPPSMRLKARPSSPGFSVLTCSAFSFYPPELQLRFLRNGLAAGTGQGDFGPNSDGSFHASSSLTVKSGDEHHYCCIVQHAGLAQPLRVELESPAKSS
T1 sequence (P61769 21-119 limits assumed, chain 2 of 2): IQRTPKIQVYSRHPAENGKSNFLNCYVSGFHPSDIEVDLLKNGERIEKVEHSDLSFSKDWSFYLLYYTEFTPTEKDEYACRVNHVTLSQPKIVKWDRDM
Procedure: The binding of AFFIMER® to Hu-FcRn was evaluated by enzyme linked immunosorbent assay (ELISA) in 384 well plate format. Hu FcRn (BPS Bioscience) was coated at 5 μg/ml on the plate in 40 mM MES, pH 6. Plates were washed 3 times with 100 μl of washing buffer (PBS, Tween 20 0.05%, pH 6) with a plate washer and saturated with Casein 5% (Sigma) in MES pH6 for 60 minutes at room temperature (25±1° C.). Plates were washed as described previously. AFFIMER® and negative controls (mAb anti hFcRn (clone ADM31), negative controls) were then diluted in duplicate, and loaded on the plate for 90 minutes at room temperature (25±1° C.). Plates were washed 3 times as described previously. Biotinylated polyclonal antibody anti Cystatin (R&D Systems) was then diluted in dilution Buffer (1% casein, 0.05% Tween 20, and 8 mM MES. It is in pH6) and incubated 60 minutes at room temperature (25±1° C.). Plates were washed 3 times as described previously and Streptavidin HRP (N200, thermo-Fisher) was incubated for 30 minutes at room temperature (25±1° C.). Plates were washed and the substrate (TMB, Pierce Thermo-Scientific) was added in the plate for 8±1 minute. The reaction was stopped using an acidic solution and plates were read at 450-630 nm. The EC50 was then calculated using the interpolated non-linear four-parameters standard curve (Table 4).

Hu FcRn (BPS Bioscience) [2] = target: T1, Hu FcRn (BPS Bioscience); experiment: ELISA, huFcRn coated, purified Affimer, pH 6
Procedure: The binding of AFFIMER® to hu-FcRn was evaluated by enzyme linked immunosorbent assay (ELISA) in 384 well plate format. Hu FcRn (BPS Bioscience) was coated at 5 μg/ml on the plate in 40 mM MES, pH 6. Plates were washed 3 times with 100 ul of washing buffer (PBS, Tween 20 0.05%, pH 6) with a plate washer and saturated with Casein 5% (Sigma) in MES pH 6 for 60 minutes at room temperature (25±1° C.). Plates were washed as described previously. AFFIMER® and negative controls (mAb anti hFcRn (clone ADM31), negative controls) were then diluted in duplicate, and loaded on the plate for 90 minutes at room temperature (25±1° C.). Plates were washed 3 times as described previously. Biotinylated polyclonal antibody anti Cystatin (R&D Systems) was then diluted in dilution buffer (1% casein, 0.05% Tween 20, and 8 mM MES, pH 6) and incubated 60 minutes at room temperature (25±1° C.). Plates were washed 3 times as described previously and Streptavidin HRP (N200, Thermo-Fisher) was incubated for 30 minutes at room temperature (25±1° C.). Plates were washed and the substrate (TMB, Pierce Thermo-Scientific) was added in the plate for 8±1 minute. The reaction was stopped using an acidic solution and plates were read at 450-630 nm. The EC₅₀ was then calculated using the interpolated non-linear four-parameters standard curve (FIGS. 5A-5B and Table 5A).

hFcRn with a His-tag [3] = target: T2, hFcRn with a His-tag (human, UniProt P55899 24-297; P61769 21-119); experiment: BLI (Octet), His-hFcRn on Ni-NTA biosensor, Affimer 40 nM, pH 7.4, 1:1 model
T2 construct: It may be the same product as m1; also called huFcRn (His tagged molecule, BPS); not shown: His-tag
T2 sequence (P55899 24-297 limits assumed, chain 1 of 2): as the sequence (P55899 24-297 limits assumed, chain 1 of 2) above
T2 sequence (P61769 21-119 limits assumed, chain 2 of 2): as the sequence (P61769 21-119 limits assumed, chain 2 of 2) above
Procedure: (§1) A BLI (Bio-Layer Interferometry)-based binding assay was performed for AFFIMER® screening in which the affinity to FcRn varies depending on the pH. hFcRn with a His-tag was fixed to a Ni-NTA biosensor. Thereafter, in the hFcRn and the AFFIMER® candidate group, Ni²⁺ not bound to the hFcRn was blocked using His-SQT-gly with a high concentration, in which reactivity is absent. Then, the AFFIMER® candidate group diluted to the same concentration was reacted with the hFcRn. All affimers were analyzed at pH 6.0 and pH 7.4, and KD was determined with a 1:1 binding model.

hFcRn with a His-tag [4] = target: T2, hFcRn with a His-tag; experiment: BLI (Octet), His-hFcRn on Ni-NTA biosensor, Affimer 40 nM, pH 6.0
Procedure: as §1

hFcRn with a His-tag [5] = target: T2, hFcRn with a His-tag; experiment: BLI (Octet), His-hFcRn on Ni-NTA biosensor, Affimer 40 nM, pH 6.0, 1:1 model
Procedure: as §1

hFcRn with a His-tag [6] = target: T2, hFcRn with a His-tag; experiment: BLI (Octet); ratio of KD at pH 7.4 to KD at pH 6.0
Procedure: as §1

hFcRn with a His-tag [7] = target: T2, hFcRn with a His-tag; experiment: BLI (Octet), His-hFcRn on Ni-NTA biosensor, Affimer 40 nM, pH 7.4
Procedure: as §1

Hu FcRn (BPS Bioscience) [8] = target: T1, Hu FcRn (BPS Bioscience); experiment: optimized ELISA on FcRn, pH 7.4
Hu FcRn (BPS Bioscience) [9] = target: T1, Hu FcRn (BPS Bioscience); experiment: optimized ELISA on FcRn, pH 6

Binder | EC50 (Hu FcRn (BPS Bioscience) [1]) [nM] | EC50 (Hu FcRn (BPS Bioscience) [2]) [nM] | Kd (hFcRn with a His-tag [3]) [nM] | Response (hFcRn with a His-tag [4]) | Kd (hFcRn with a His-tag [5]) [nM] | pH 7.4/pH 6.0 (KD ratio) (hFcRn with a His-tag [6]) | Response (hFcRn with a His-tag [7]) | EC50 (Hu FcRn (BPS Bioscience) [8]) [nM] | EC50 (Hu FcRn (BPS Bioscience) [9]) [nM]
B1 | 74.1 |  |  |  |  |  |  |  | 
B2 |  | 50.5 |  |  |  |  |  |  | 
B3 |  |  | 59.3 | 1.44 | 8.76 | 6.8 | 0.803 | 79900 | 1500
B4 |  | 187 |  |  |  |  |  |  | 
B5 |  |  | 123 | 0.836 | 28.4 | 4.3 | 0.582 | 15700 | 262
B6 |  |  | 83.3 | 1.07 | 20.5 |  | 0.631 | 48600 | 1020
B7 |  |  | 65 | 1.2 | 16 |  | 0.794 | 19700 | 327
B8 |  |  | 82.8 | 1.12 | 18.7 | 4.4 | 0.71 | 23300 | 967
B9 |  |  | 61.2 | 1.16 | 9.27 | 6.6 | 0.602 | 15700 | 570
B10 |  |  | 57.9 | 1.02 | 10.5 | 5.5 | 0.595 | 78900 | 4480
